{"source": "patent US6989369B2", "about": "“Kunitz domain peptides” (Dyax Corp., priority 2003, dated 2006)", "key": {"[1]": {"experiment": "Clinical testing of DX-88 for hereditary angioedema (HAE)", "type": "in vivo, human", "conditions": "treatment of hereditary angioedema, initial data"}, "HNE": {"target": "T1, HNE (Homo sapiens, UniProt P08246)", "T1 sequence (P08246 30-267)": "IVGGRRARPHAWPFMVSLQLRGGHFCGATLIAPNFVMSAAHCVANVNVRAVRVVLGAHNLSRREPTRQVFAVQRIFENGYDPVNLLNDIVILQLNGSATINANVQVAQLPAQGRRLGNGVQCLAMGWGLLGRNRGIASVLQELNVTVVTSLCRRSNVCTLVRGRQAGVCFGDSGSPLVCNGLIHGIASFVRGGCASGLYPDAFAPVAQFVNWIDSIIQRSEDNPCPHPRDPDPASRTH", "experiment": "HNE-neutralizing activity expected for doubly fused protein", "type": "biochemical", "conditions": "expected value, protein not tested"}, "[2]": {"conditions": "rabbit", "from_the_text": "After radiolabeling, the two labeled protein preparations were purified from unbound label by size exclusion chromatography (SEC). Fractions from the SEC column having the highest radioactivity were pooled. The purified, radiolabeled preparations were characterized for specific activity by scintillation counting and for purity by SEC using a Superose-12 column equipped with an in-line radiation detector.\nNew Zealand White rabbits (ca. 2.5 Kg) were used for clearance measurements, with one animal each used for of the two labeled protein preparations. The radiolabeled preparation was injected into the animal via an ear vein. One blood sample was collected per animal per time point with early time points at approximately 0, 7, 15, 30, and 90 minutes and later time points at 4, 8, 16, 24, 48, 72, 96, 144, 168, and 192 hours. Samples (about 0.5 ml) were collected into anticoagulant (EDTA) tubes. Cells were separated from the plasma/serum fraction by centrifugation. The plasma fraction was divided into two aliquots. One plasma aliquot was stored at −70° C. and the other aliquot was kept at 4° C. for immediate analyses. Sample analyses included radiation counting for clearance rate determinations and SEC chromatography for in vivo stability."}, "[3]": {"conditions": "about 840 mg, 80 open-heart surgery patients; cited from earlier work"}, "[4]": {"conditions": "after 8 days of treatment; cited from earlier work"}}, "note": "Positions of bridges follow the written chain, without caps; N, C: chain ends. No end group written: not given here.", "data": [{"molecule": "DX-88: Kunitz domain derived from the first Kunitz domain of human LACI, inhibits human plasma kallikrein; SEQ ID No.: 48 (EAMHSFCAFKADDGPCRAAHPRWFFNIFTRQCEEFIYGGCEGNQNRFESLEECKKMCTRD; DX-88 Kunitz domain peptide)", "values": [{"measurement": "safety and efficacy in the clinic", "setting": "[1]", "result": "safe and effective"}]}, {"molecule": "Dx890-HA-Dx890: albumin fused at both termini to DX-890 via (GGS)4GG linkers; SEQ ID No.: 75", "values": [{"measurement": "HNE-neutralizing activity relative to DX890", "setting": "HNE", "result": "~16", "unit": "%"}]}, {"molecule": "EACNLPIVRGPCIAFFPRWAFDAVKGKCVLFPYGGCQGNGNKFYSEKECREYCGVP (disulfide 3-53, 12-36, 28-49) [DX-890]", "values": [{"measurement": "in vivo stability, SEC analysis of plasma", "setting": "[2]", "result": "relatively rapid association of label with higher molecular weight plasma components"}, {"measurement": "% α", "setting": "[2]; in vivo", "result": 75, "unit": "%"}, {"measurement": "% β", "setting": "[2]; in vivo", "result": 25, "unit": "%"}, {"measurement": "Clearance Times T1/2α", "setting": "[2]; in vivo", "result": 24, "unit": "s"}]}, {"molecule": "bovine pancreatic trypsin inhibitor [BPTI]", "values": [{"measurement": "decrease of mean amount transfused", "setting": "[3]", "result": 74, "unit": "%"}, {"measurement": "reduction of blood loss", "setting": "[3]", "result": "almost half"}]}, {"molecule": "Pulmozyme: a recombinant human deoxyribonuclease which reduces mucus viscoelasticity by hydrolyzing DNA in sputum (protein, UniProt P24855 23-282, looked up) Deoxyribonuclease-1: LKIAAFNIQTFGETKMSNATLVSYIVQILSRYDIALVQEVRDSHLTAVGKLLDNLNQDAPDTYHYVVSEPLGRNSYKERYLFVYRPDQVSAVDSYYYDDGCEPCGNDTFNREPAIVRFFSRFTEVREFAIVPLHAAPGDAVAEIDALYDVYLDVQEKWGLEDVMLMGDFNAGCSYVRPSQWSSIRLWTSPTFQWLIPDSADTTATPTHCAYDRIVVAGMLLRGAVVPDSALPFNFQAAYGLSDQLAQAISDHYPVEVMLK", "values": [{"measurement": "effect on pulmonary function", "setting": "[4]", "result": "increase FEV1 and FVC"}]}]}
